According to US20200354457A1 (Hoffmann-La Roche, published 2020):

B1: LAG3 21B11 aVH domain (VHH)
VHH: EVQLVESGGGLVQPGGSLRLSCAASGFNIKDTCIGWVRRAPGKGTELVAEICQDIGYTRYADSVKGRFTISADTSKNTAYLQMNSLRAEDTAVYYCAADESVDNFKYWGQGTTVTVSS
B2: LAG3 9B4 aVH domain (VHH)
VHH: EVQLVESGGGLVQPGGSLRLSCAASGFNIKDTCIGWVRRAPGKGTELVAEICQDIGYTRYADSVKGRFTISADTSKNTAYLQMNSLRAEDTAVYYCAAVEVAEYFEYWGQGTTVTVSS
B3: LAG3 17D7 aVH domain (VHH)
VHH: EVQLVESGGGLVQPGGSLRLSCAASGFNIKDTCIGWVRRAPGKGTELVAEICTDIGYTRYADSVKGRFTISADTSKNTAYLQMNSLRAEDTAVYYCAAGEGSSGFHYWGQGTTVTVSS
B4: LAG3 19G3 aVH domain (VHH)
VHH: EVQLVESGGGLVQPGGSLRLSCAASGFNIKYQCIGWVRRAPGKGTELVAEICSYDGYTRYADSVKGRFTISADTSKNTAYLQMNSLRAEDTAVYYCAAEESVEGFIYWGQGTTVTVSS
notes: also called P19G3
B5: LAG3 P9G1 aVH domain (VHH)
VHH: EVQLVESGGGLVQPGGSLRLSCAASGFNIKDTCIGWVRRAPGKGTELVAEICQDIGYTRYADSVKGRFTISADTSKNTAYLQMNSLRAEDTAVYYCAGEEGATNFKYWGQGTTVTVSS
B6: LAG3 P10C3 aVH domain (VHH)
VHH: EVQLVESGGGLVQPGGSLRLSCAASGFNIKDTCIGWVRRAPGKGTELVAEICTDAGYTRYADSVKGRFTISADTSKNTAYLQMNSLRAEDTAVYYCAASESPSGFRYWGQGTTVTVSS
B7: LAG3 P10D1 aVH domain (VHH)
VHH: EVQLVESGGGLVQPGGSLRLSCAASGFSIKDTCIAWVRRAPGKGTELVAEICEDIGYTRYADSVKGRFTISADTSKNTAYLQMNSLRAEDTAVYYCAAKEAGVGFDYWGQGTTVTVSS
notes: also called P110D1
B8: LAG3 P11E2 aVH domain (VHH)
VHH: EVQLVESGGGLVQPGGSLRLSCAASGFNIKDTCIGWVRRAPGKGTELVAEICDDIGYTRYADSVKGRFTISADTSKNTAYLQMNSLRAEDTAVYYCASQEHQWSFKYWGQGTTVTVSS
B9: LAG3 P11E9 aVH domain (VHH)
VHH: EVQLVESGGGLVQPGGSLRLSCAASGFNIKDTCIGWVRRAPGKGTELVAEICHDIGYTRYADSVKGRFTISADTSKNTAYLQMNSLRAEDTAVYYCAAEEHVASFEYWGQGTTVTVSS
B10: LAG3 P21A03 aVH domain (VHH)
VHH: EVQLVESGGGLVQPGGSLRLSCAASGFNIKDTCIGWVRRAPGKGTELVAEICEDIGYTRYADSVKGRFTISADTSKNTAYLQMNSLRAEDTAVYYCAANEHSVGFNYWGQGTTVTVSS
notes: also called 21A3
B11: LAG3 P11A2 aVH domain (VHH)
VHH: EVQLVESGGGLVQPGGSLRLSCAASSFNIKDTYIGWVRRAPGKGTELVAEIACHEGTTRYADSVKGRFTISCDTSKNTAYLQMNSLRAEDTAVYYCANTEYDDIFDYWGQGTTVTVSS

Molecular target: T1, soluble human Lag3-IgG1-Fc with biotinylated C-terminal Avi-tag (human, biotin on the C-terminal Avi-tag)
T1 construct: also called LAG3-Fc-avi; biotinylated LAG3-Fc antigen
T1 sequence (chain, as listed by the source limits assumed): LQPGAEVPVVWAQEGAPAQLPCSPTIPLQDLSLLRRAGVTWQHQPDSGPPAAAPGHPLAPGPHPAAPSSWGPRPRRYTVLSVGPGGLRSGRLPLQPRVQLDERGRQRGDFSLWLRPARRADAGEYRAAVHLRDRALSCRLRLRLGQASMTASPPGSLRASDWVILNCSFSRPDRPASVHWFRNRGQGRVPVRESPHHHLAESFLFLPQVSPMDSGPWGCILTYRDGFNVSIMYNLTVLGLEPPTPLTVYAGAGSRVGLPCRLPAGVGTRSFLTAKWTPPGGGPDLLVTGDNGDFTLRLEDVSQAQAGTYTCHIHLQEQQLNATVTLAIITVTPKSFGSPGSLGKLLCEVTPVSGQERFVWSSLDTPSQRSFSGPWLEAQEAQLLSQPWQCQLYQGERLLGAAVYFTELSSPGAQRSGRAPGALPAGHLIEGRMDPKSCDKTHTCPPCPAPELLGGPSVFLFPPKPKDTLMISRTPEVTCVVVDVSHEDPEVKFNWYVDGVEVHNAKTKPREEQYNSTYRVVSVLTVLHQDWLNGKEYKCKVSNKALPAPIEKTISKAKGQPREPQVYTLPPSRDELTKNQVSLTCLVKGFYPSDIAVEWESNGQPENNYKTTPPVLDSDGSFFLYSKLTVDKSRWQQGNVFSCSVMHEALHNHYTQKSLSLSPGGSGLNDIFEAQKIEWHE
Test: SPR (ProteOn XPR36), biotinylated LAG3-Fc captured on NLC chip, purified aVH as analyte, 25 C;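 further: One-shot kinetics in PBST running buffer, rates fitted by 1:1 Langmuir model fitting association and dissociation together, KD as koff/kon, biotinylated Fc surface as negative control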

Compared with B1, B2 is 2-fold higher in Kd: 43 nM for the first, 86 nM for the second.

Going from B3 to B4, the Kd rises from 311 nM to 766 nM (2.5-fold). The first binds more tightly here.

Going from B5 to B6, the Kd rises from 5.1 nM to 38.5 nM (7.5-fold).

B7 and B8 are within 1.5-fold of each other in Kd: 27 nM for the first, 36.7 nM for the second.

Going from B9 to B10, the Kd rises from 6.81 nM to 13.7 nM (2-fold).

For B11, the Kd was 55 nM.

B1 and B2 are within 1.5-fold of each other in koff: 0.00217 s⁻¹ for the first, 0.00314 s⁻¹ for the second.

B3 and B4 are within 1.5-fold of each other in koff: 0.00493 s⁻¹ for the first, 0.00466 s⁻¹ for the second.

Going from B5 to B6, the koff rises from 0.000829 s⁻¹ to 0.00217 s⁻¹ (2.6-fold).

First: B7
Second: B8
The koff of the first is 2.4-fold higher: 0.00383 s⁻¹ for the first, 0.00157 s⁻¹ for the second.

Going from B9 to B10, the koff falls from 0.000656 s⁻¹ to 0.000387 s⁻¹ (1.7-fold).

For B11, the koff was 0.0138 s⁻¹.

First: B1
Second: B2
The kon of the first is 1.7-fold higher: 62700 M⁻¹ s⁻¹ for the first, 36500 M⁻¹ s⁻¹ for the second.

Compared with B3, B4 is 2.6-fold lower in kon: 15900 M⁻¹ s⁻¹ for the first, 6080 M⁻¹ s⁻¹ for the second.

Compared with B5, B6 is 2.9-fold lower in kon: 162000 M⁻¹ s⁻¹ for the first, 56200 M⁻¹ s⁻¹ for the second.

Going from B7 to B8, the kon falls from 144000 M⁻¹ s⁻¹ to 42800 M⁻¹ s⁻¹ (3.4-fold).

First: B9
Second: B10
The kon of the first is 3.4-fold higher: 96300 M⁻¹ s⁻¹ for the first, 28200 M⁻¹ s⁻¹ for the second.

B11 was tested, and the kon was 251000 M⁻¹ s⁻¹.
